Molecular target: T1, PAK4cat (Homo sapiens, UniProt O96013)
T1 construct: PAK1 (1-545) and PAK4 (286-591), respectively; 6His (N); made in house; host or cells: Escherichia coli BL21-CodonPlus(DE3)
Test: In vitro kinase assay, phosphorylation of GST-Raf13 by PAK4cat
Type: biochemical
Settings: in vitro, FIG. 1d
Protocol: Purified PAK1 or PAK4 (50 nM in 25-50 μl) were incubated with 10 μM GST-Raf1S338 peptide in 10 μM ATP (2 μCi of γ32P ATP) of kinase buffer (25 mM Hepes, pH 7.3, 0.1% Triton-X100, 50 mM KCl, 10 mM MgCl2, 1 mM DTT) at 30° C. for 20 min. Samples were analysed by SDS-polyacrylamide gel electrophoresis, or adsorption of the GST substrate mix onto PVDF membranes, followed by extensive washing to remove free γ32P-ATP. The synthetic peptides of 95% purity, as determined by HPLC and MS analyses (GenScript), were soluble in aqueous PBS. Stock solutions (10 mM) were quantified via calculated extinction coefficients and absorbance measurements at 280 nm and stored at −80° C. The diluted peptides were incubated at the indicated concentrations with the kinase on ice (10 min) before addition of γ32P ATP and subsequent incubation at 30° C. The synthetic peptide array (Jerini Biotools) was phosphorylated in situ as described previously.

T1 sequence (O96013 286-591): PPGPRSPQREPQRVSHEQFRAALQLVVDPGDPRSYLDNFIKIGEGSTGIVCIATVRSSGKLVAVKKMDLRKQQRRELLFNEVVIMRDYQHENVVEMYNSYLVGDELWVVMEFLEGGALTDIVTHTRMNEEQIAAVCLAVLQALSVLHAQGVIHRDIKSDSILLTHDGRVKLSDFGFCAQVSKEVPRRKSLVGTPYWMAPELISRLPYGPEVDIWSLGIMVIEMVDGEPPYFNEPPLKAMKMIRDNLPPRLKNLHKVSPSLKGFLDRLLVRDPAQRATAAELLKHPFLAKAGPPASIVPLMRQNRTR

Ki: ~30 nM
B1: Inka1: human Inka1, endogenous protein inhibitor of PAK4 (protein)
chain: MDMHSARLDSFLSQLRWELLCGRDTGSPSMPGPLQPTSQTGPDVQPSHQLRASGALEEDSVCCVEEEEEEEEEAVVTEDRDAALGGPREHALDWDSGFSEVSGSTWREEELPVSQRPAPSAQPLRRQCLSVSGLPMPSRAPVASVPPVHHPRPKSTPDACLEHWQGLEAEDWTAALLNRGRSRQPLVLGDNCFADLVHNWMELPETGSEGGDGGGHRARARPPQFLLGLSEQLRRRLARARRTAMAGKRLSCPPRPEPELPADVSRFAALMSCRSRQPIICNDVS
modifications: left off: small tags and cut ends
